Measurements: patent publication US20230407326A1, “INDUCIBLE PROMOTER FOR VIRAL VECTOR PRODUCTION” (ASKLEPIOS BIOPHARMACEUTICAL, INC., priority 2020, published 2023)

Experiments:
[1] = test system: CHO-GS cells; assay: Luciferase expression in transiently transfected CHO-GS suspension cells, normoxia vs 24 hrs hypoxia; assay type: cell-based, Chinese hamster; settings: CHO_GS suspension cell line
Description: 40 ml of cells were grown in a 250 ml vented Erlenmeyer flask (Sigma-Aldrich CLS431144) at 37° C., 20% O2, 8% CO2 with agitation at 100 rpm. Cells were seeded as at 300,000 cells/ml.
(§1) One day before transfection, the cells were counted using a haemocytometer and split to 500,000 cells/ml.
On the day of transfection, the cells are seeded to 1,000,000 cells/ml in 500 μl of appropriate medium (Thermofisher, CD-CHO 10743029) in a 24 well plate. 0.625 μg of DNA per well was then added to 10 μl of OptiMem medium (Thermofisher; 11058021) and incubated for 5 minutes at room temperature.
Concurrently, 0.625 μl of Freestyle Max reagent (Thermofisher, 16447100) was made up to 10 μl by addition of OptiMem and incubated for 5 minutes at room temperature. After this incubation, both mixes were added to the same tube and incubated at room temperature for 25-30 minutes. The DNA/Max reagent mix (20 μl/well) was then added directly to the cells and the cells incubated at 37° C., 8% CO2 with agitation at 100 rpm. […]
After transfection the cells were incubated for 24 hrs in normoxic conditions (20% oxygen). Induction of the promoters was assessed by using luciferase activity after 24 hrs in normoxia or hypoxia (5% oxygen, 10% carbon dioxide and 85% nitrogen). […] Luciferase activity was measured as described above.

[2] = test system: HEK293-F cells; assay: Luciferase expression from hypoxia-inducible promoters in transiently transfected HEK293-F cells under hypoxia; assay type: cell-based, human; settings: hypoxia 5% oxygen, 3, 5 and 24 hrs
Description: 40 ml of cells were grown in a 250 ml vented Erlenmeyer flask (Sigma-Aldrich CLS431144) at 37° C., 20% O2, 8% CO2 with agitation at 100 rpm. Cells were seeded as described in the manufacturer's instructions (300,000 cells/ml). HEK293-F were obtained from Thermofisher, R79007.
as §1
On the day of transfection, the cells are seeded to 1,000,000 cells/ml in 500 μl of appropriate medium (Freestyle 293 expression medium, 12338002) in a 24 well plate. 0.625 μg of DNA per well was then added to 10 μl of OptiMem medium (Thermofisher; 11058021) and incubated for 5 minutes at room temperature. […]
After transfection the cells were incubated for 24 hrs in normoxia conditions (20% oxygen) before being switched to a gas mix of 5% oxygen, 10% carbon dioxide and 85% nitrogen (hypoxia). […] Induction of the promoters was assessed by using luciferase activity after 3, 5 and 24 hrs in hypoxia.
(§2) Luciferase activity was measured using LARII (Dual Luciferase Reporter 1000 assay system, Promega, E1980).
Media was removed from the cells at the respective time point (0, 3, 5, 24 hrs after induction). […] 10 μl of supernatant was pipetted into white 96-well plate and luminescence measured by addition of 50 μl of LARII substrate. […]

[3] = test system: HEK293-T cells; assay: Luciferase expression in transiently transfected HEK293-T cells, normoxia vs 24 hrs hypoxia; assay type: cell-based, human
Description: HEK293-T are seeded at a density of 20%. Once they reached a confluence between 60 and 80%, the media is changed with DMEM (#21885-025—Thermo Scientific) supplemented with 10% FBS (Gibco, 26140). After 3 hours, the cells were transfected by a transfection mix. The transfection mix is prepared by adding DNA (2 μg per 6 well plate) and PEI 25 kDA (#23966-1-Polyscience) in a ratio of 1:3 in sterile DPBS (#14190169—ThermoFisher Scientific). After mixing, the transfection mix is incubated at room temperature for 30 minutes and then added directly to the cells. After 16 to 18 h post transfection, the media is changed to DMEM+2% FBS. […]
After transfection the cells were incubated for 24 hrs in normoxic conditions (20% oxygen). Induction of the promoters was assessed by using luciferase activity after 24 hrs in normoxia or hypoxia (5% oxygen, 10% carbon dioxide and 85% nitrogen). […]
as §2
Media was removed from the cells at the respective time point (0, 3, 5, 24 hrs after induction). […] 10 μl of supernatant was pipetted into white 96-well plate and luminescence measured by addition of 50 μl of LARII substrate.
β-galactosidase activity was measured as per manufacturer's instructions (Mammalian βGalactosidase Assay Kit, 75707/75710, Thermo Scientific) using 25 μl of lysate. […]

B1: RTV-015: synthetic hypoxia-inducible promoter, five HRE1 and synthetic minimal promoter MP1, SEQ ID NO: 1 (nucleic acid)
DNA: ACGTGCGATGATGCGTAGCTAGTAGTGATGATGCGTAGCTAGTAGTACGTGCGATGATGCGTAGCTAGTAGTGATGATGCGTAGCTAGTAGTACGTGCGATGATGCGTAGCTAGTAGTGATGATGCGTAGCTAGTAGTACGTGCGATGATGCGTAGCTAGTAGTGATGATGCGTAGCTAGTAGTACGTGCTTGGTACCATCCGGGCCGGCCGCTTAAGCGACGCCTATAAAAAATAGGTTGCATGCTAGGCCTAGCGCTGCCAGTCCATCTTCGCTAGCCTGTGCTGCGTCAGTCCAGCGCTGCGCTGCGTAACGGCCGCC
[1]
  luciferase expression in normoxia and after 24 hours in hypoxia: almost no luciferase activity in normoxia but is induced after 24 hours in hypoxia
[2]
  promoter activity (luciferase) relative to the other promoters: weakest
[3]
  luciferase expression in normoxia and after 24 hours in hypoxia: almost no luciferase activity in normoxia but is induced after 24 hours in hypoxia
